Laboratory results taken from article PMC7885793 (Biochemistry, 2019).

What was measured:
Assay in all cases: cell-based or functional assay
PLCβ3-Δ892 ΔXY1 = biological target: T1, PLCβ3-Δ892 ΔXY1 (Homo sapiens, UniProt Q01970 10-892, ΔXY1 (residues 471–569))
T1 sequence (looked up): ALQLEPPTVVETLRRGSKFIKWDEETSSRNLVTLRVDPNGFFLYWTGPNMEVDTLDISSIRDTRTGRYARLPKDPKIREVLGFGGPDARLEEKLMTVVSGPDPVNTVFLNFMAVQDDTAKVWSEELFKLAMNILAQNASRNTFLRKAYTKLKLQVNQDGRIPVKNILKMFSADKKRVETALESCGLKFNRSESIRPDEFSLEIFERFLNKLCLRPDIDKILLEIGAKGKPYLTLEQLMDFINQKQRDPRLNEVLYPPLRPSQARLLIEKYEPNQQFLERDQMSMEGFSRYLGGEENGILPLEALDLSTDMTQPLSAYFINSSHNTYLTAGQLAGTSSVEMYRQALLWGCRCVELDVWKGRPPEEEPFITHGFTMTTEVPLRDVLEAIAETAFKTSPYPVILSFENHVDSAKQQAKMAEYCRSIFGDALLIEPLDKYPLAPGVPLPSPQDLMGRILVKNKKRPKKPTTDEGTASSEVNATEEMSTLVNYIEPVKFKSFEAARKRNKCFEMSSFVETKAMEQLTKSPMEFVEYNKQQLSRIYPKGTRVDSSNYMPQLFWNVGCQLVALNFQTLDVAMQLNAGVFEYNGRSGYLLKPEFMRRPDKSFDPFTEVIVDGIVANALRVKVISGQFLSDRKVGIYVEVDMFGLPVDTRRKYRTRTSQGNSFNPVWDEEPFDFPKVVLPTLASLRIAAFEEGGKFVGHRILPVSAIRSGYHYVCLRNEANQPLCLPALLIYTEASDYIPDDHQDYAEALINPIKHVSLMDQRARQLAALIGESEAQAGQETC

PLCβ3 ΔXY2 = biological target: T2, PLCβ3 ΔXY2 (Homo sapiens, UniProt Q01970 10-1234, ΔXY2 (residues 471–584))
T2 sequence (looked up): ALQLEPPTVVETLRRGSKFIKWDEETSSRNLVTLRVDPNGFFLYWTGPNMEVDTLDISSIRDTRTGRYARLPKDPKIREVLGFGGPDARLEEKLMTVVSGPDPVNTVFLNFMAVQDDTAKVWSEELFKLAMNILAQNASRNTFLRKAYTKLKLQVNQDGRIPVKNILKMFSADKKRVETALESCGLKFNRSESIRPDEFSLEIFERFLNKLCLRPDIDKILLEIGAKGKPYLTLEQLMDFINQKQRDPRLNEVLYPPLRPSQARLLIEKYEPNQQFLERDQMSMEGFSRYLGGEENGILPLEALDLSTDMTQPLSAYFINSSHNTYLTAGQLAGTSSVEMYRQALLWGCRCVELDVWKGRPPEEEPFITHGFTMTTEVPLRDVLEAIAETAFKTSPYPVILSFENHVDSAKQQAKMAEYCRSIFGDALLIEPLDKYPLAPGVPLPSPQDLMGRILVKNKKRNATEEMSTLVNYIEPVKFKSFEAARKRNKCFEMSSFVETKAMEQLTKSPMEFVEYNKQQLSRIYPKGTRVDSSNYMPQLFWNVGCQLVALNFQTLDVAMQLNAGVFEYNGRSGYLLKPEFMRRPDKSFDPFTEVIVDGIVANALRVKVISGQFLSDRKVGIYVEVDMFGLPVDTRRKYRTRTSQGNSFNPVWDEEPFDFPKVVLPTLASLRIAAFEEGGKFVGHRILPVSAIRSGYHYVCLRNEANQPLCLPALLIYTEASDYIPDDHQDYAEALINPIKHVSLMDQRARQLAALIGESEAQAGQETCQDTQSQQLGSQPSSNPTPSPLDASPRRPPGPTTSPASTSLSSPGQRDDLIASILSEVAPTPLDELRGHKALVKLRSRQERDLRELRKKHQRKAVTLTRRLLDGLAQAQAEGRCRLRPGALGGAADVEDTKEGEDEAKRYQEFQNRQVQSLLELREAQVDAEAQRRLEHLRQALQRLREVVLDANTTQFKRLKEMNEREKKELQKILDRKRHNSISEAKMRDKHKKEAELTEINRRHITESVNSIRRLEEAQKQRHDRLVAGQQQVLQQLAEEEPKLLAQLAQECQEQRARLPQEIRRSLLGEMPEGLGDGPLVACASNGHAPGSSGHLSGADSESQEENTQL

PLCβ3-Δ892 ΔXY2 = biological target: T3, PLCβ3-Δ892 ΔXY2 (Homo sapiens, UniProt Q01970 10-892, ΔXY2 (residues 471–584))
T3 sequence (looked up): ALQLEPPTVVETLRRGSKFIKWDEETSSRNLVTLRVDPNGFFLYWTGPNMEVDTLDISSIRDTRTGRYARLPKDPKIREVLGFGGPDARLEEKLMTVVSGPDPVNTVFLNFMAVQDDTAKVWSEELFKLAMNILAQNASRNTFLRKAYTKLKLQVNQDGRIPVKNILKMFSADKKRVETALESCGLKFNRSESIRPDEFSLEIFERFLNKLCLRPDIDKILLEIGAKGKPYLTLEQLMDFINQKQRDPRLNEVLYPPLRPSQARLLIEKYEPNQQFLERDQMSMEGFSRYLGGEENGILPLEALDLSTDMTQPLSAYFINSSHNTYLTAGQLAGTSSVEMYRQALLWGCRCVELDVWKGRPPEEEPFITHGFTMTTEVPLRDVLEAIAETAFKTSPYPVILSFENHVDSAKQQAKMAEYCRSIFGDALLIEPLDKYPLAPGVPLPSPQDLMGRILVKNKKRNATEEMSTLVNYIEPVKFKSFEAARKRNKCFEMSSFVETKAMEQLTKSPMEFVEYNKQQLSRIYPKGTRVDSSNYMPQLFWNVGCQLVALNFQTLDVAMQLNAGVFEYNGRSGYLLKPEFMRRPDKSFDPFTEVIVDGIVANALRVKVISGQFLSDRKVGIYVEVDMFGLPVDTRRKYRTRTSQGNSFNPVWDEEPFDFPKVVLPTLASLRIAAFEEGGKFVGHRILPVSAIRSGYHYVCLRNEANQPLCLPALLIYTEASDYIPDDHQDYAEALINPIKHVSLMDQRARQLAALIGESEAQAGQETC

x-fold maximum activity over basal (complex against the PLCβ3 variant alone) (PLCβ3-Δ892 ΔXY1): 2 x-fold
x-fold maximum activity over basal (complex against the PLCβ3 variant alone) (PLCβ3 ΔXY2): 2 x-fold
x-fold maximum activity over basal (complex against the PLCβ3 variant alone) (PLCβ3-Δ892 ΔXY2): 3 x-fold
B1: Activated Gαq (Gαq·GDP-ALF4^−) (natural protein, murine, UniProt P21279 7-359, looked up)
chain: MACCLSEEAKEARRINDEIERQLRRDKRDARRELKLLLLGTGESGKSTFIKQMRIIHGSGYSDEDKRGFTKLVYQNIFTAMQAMIRAMDTLKIPYKYEHNKAHAQLVREVDVEKVSAFENPYVDAIKSLWNDPGIQECYDRRREYQLSDSTKYYLNDLDRVADPSYLPTQQDVLRVRVPTTGIIEYPFDLQSVIFRMVDVGGQRSERRKWIHCFENVTSIMFLVALSEYDQVLVESDNENRMEESKALFRTIITYPWFQNSSVILFLNKKDLLEEKIMYSHLVDYFPEYDGPQRDAQAAREFILKMFVDLNPDSDKIIYSHFTCATDTENIRFVFAAVKDTILQLNLKEYNLV
